Measured values as given in the supplement of paper PMC10567573.

B1: TPPP (parent)
chain: LCKDCQVIDGRNVTVTDVDIVFSK
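Note: lentivirally expressed fusions sorted by FACS into six bins by GFP to DsRed ratio, PSI derived from sequencing read proportions per bin multiplied by bin number.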

Variants of: B1
Experiment: protein stability index of a GFP-peptide fusion (GPS, HEK-293T) (PSI 1-6); higher = more stable
Conditions: c terminus: a fixed tail appended
For LCKDCMVIDGRNVTVTDVDIVFSK [Q6M], the protein stability index was 2.66.
Work on LCKDCAVIDGRNVTVTDVDIVFSK [Q6A] yielded a protein stability index of 2.05.
LCKDCHVIDGRNVTVTDVDIVFSK [Q6H] gave a protein stability index of 2.73.
LCKDCSVIDGRNVTVTDVDIVFSK [Q6S] gave a protein stability index of 2.61.
Work on LCKDCRVIDGRNVTVTDVDIVFSK [Q6R] yielded a protein stability index of 2.8.
Work on LCKDCTVIDGRNVTVTDVDIVFSK [Q6T] yielded a protein stability index of 2.7.
Variant LCKDCWVIDGRNVTVTDVDIVFSK [Q6W] has a protein stability index of 2.17.
LCKDCCVIDGRNVTVTDVDIVFSK [Q6C] gave a protein stability index of 2.09.
LCKDCKVIDGRNVTVTDVDIVFSK [Q6K] showed a protein stability index of 2.16.
Work on LCKDCVVIDGRNVTVTDVDIVFSK [Q6V] yielded a protein stability index of 2.14.
In the case of LCKDCFVIDGRNVTVTDVDIVFSK [Q6F], the protein stability index is reported as 1.74.
LCKDCNVIDGRNVTVTDVDIVFSK [Q6N] gave a protein stability index of 2.49.
LCKDCEVIDGRNVTVTDVDIVFSK [Q6E] showed a protein stability index of 2.9.
LCKDCGVIDGRNVTVTDVDIVFSK [Q6G] gave a protein stability index of 2.78.
With LCKDCYVIDGRNVTVTDVDIVFSK [Q6Y] the protein stability index was 2.4.
Variant LCKDCDVIDGRNVTVTDVDIVFSK [Q6D] has a protein stability index of 2.69.
LCKDCPVIDGRNVTVTDVDIVFSK [Q6P] showed a protein stability index of 3.16.
Work on LCKDCQVIDGWNVTVTDVDIVFSK [R11W] yielded a protein stability index of 1.78.
For LCKDCQVIDGGNVTVTDVDIVFSK [R11G], the protein stability index was 2.56.
LCKDCQVIDGVNVTVTDVDIVFSK [R11V] gave a protein stability index of 2.05.
In the case of LCKDCQVIDGMNVTVTDVDIVFSK [R11M], the protein stability index is reported as 2.16.
Variant LCKDCQVIDGANVTVTDVDIVFSK [R11A] has a protein stability index of 2.54.
Work on LCKDCQVIDGKNVTVTDVDIVFSK [R11K] yielded a protein stability index of 2.71.
LCKDCQVIDGSNVTVTDVDIVFSK [R11S] gave a protein stability index of 2.58.
For LCKDCQVIDGYNVTVTDVDIVFSK [R11Y], the protein stability index was 1.55.
LCKDCQVIDGLNVTVTDVDIVFSK [R11L] showed a protein stability index of 1.68.
Work on LCKDCQVIDGENVTVTDVDIVFSK [R11E] yielded a protein stability index of 2.9.
LCKDCQVIDGPNVTVTDVDIVFSK [R11P] gave a protein stability index of 2.57.
With LCKDCQVIDGINVTVTDVDIVFSK [R11I] the protein stability index was 1.68.
LCKDCQVIDGTNVTVTDVDIVFSK [R11T] gave a protein stability index of 2.35.
Variant LCKDCQVIDGNNVTVTDVDIVFSK [R11N] has a protein stability index of 2.85.
With LCKDCQVIDGHNVTVTDVDIVFSK [R11H] the protein stability index was 2.15.
With LCKDCQVIDGCNVTVTDVDIVFSK [R11C] the protein stability index was 2.35.
LCKDCQVIDGDNVTVTDVDIVFSK [R11D] gave a protein stability index of 3.54.
LCKDCQVIDGFNVTVTDVDIVFSK [R11F] gave a protein stability index of 1.91.
For LCKDCQVIDGQNVTVTDVDIVFSK [R11Q], the protein stability index was 2.35.
LCKDCQVIDGRNVAVTDVDIVFSK [T14A] gave a protein stability index of 2.81.
Variant LCKDCQVIDGRNVCVTDVDIVFSK [T14C] has a protein stability index of 2.41.
Variant LCKDCQVIDGRFVTVTDVDIVFSK [N12F] has a protein stability index of 2.48.
With LCKDCQVIDGRYVTVTDVDIVFSK [N12Y] the protein stability index was 2.66.
LCKDCQVIDGRVVTVTDVDIVFSK [N12V] gave a protein stability index of 1.71.
Work on LCKDCQVIDGREVTVTDVDIVFSK [N12E] yielded a protein stability index of 3.88.
For LCKDCQVIDGRPVTVTDVDIVFSK [N12P], the protein stability index was 2.4.
Variant LCKDCQVIDGRHVTVTDVDIVFSK [N12H] has a protein stability index of 2.65.
Variant LCKDCQVIDGRAVTVTDVDIVFSK [N12A] has a protein stability index of 2.57.
LCKDCQVIDGRQVTVTDVDIVFSK [N12Q] showed a protein stability index of 2.3.
In the case of LCKDCQVIDGRGVTVTDVDIVFSK [N12G], the protein stability index is reported as 2.48.
With LCKDCQVIDGRIVTVTDVDIVFSK [N12I] the protein stability index was 1.53.
LCKDCQVIDGRDVTVTDVDIVFSK [N12D] gave a protein stability index of 2.68.
For LCKDCQVIDGRKVTVTDVDIVFSK [N12K], the protein stability index was 2.52.
LCKDCQVIDGRCVTVTDVDIVFSK [N12C] gave a protein stability index of 2.17.
LCKDCQVIDGRSVTVTDVDIVFSK [N12S] showed a protein stability index of 1.98.
In the case of LCKDCQVIDGRMVTVTDVDIVFSK [N12M], the protein stability index is reported as 1.73.
Variant LCKDCQVIDGRRVTVTDVDIVFSK [N12R] has a protein stability index of 2.23.
In the case of LCKDCQVIDGRLVTVTDVDIVFSK [N12L], the protein stability index is reported as 2.57.
LCKDCQVIDGRTVTVTDVDIVFSK [N12T] gave a protein stability index of 2.11.
LCKDCQVIGGRNVTVTDVDIVFSK [D9G] showed a protein stability index of 2.1.
For LCKDCQVIMGRNVTVTDVDIVFSK [D9M], the protein stability index was 2.19.
Variant LCKDCQVIVGRNVTVTDVDIVFSK [D9V] has a protein stability index of 1.21.
LCKDCQVIIGRNVTVTDVDIVFSK [D9I] gave a protein stability index of 1.66.
LCKDCQVIFGRNVTVTDVDIVFSK [D9F] gave a protein stability index of 1.9.
LCKDCQVISGRNVTVTDVDIVFSK [D9S] gave a protein stability index of 2.45.
LCKDCQVILGRNVTVTDVDIVFSK [D9L] gave a protein stability index of 2.48.
Variant LCKDCQVIRGRNVTVTDVDIVFSK [D9R] has a protein stability index of 2.53.
With LCKDCQVITGRNVTVTDVDIVFSK [D9T] the protein stability index was 2.99.
For LCKDCQVIYGRNVTVTDVDIVFSK [D9Y], the protein stability index was 2.27.
Variant LCKDCQVIEGRNVTVTDVDIVFSK [D9E] has a protein stability index of 2.66.
Variant LCKDCQVIKGRNVTVTDVDIVFSK [D9K] has a protein stability index of 2.48.
For LCKDCQVIWGRNVTVTDVDIVFSK [D9W], the protein stability index was 1.84.
For LCKDCQVIAGRNVTVTDVDIVFSK [D9A], the protein stability index was 1.96.
Variant LCKDCQVIQGRNVTVTDVDIVFSK [D9Q] has a protein stability index of 2.76.
LCKDCQVIHGRNVTVTDVDIVFSK [D9H] gave a protein stability index of 2.07.
Work on LCKDCQVINGRNVTVTDVDIVFSK [D9N] yielded a protein stability index of 2.
Work on LCKDCQVIPGRNVTVTDVDIVFSK [D9P] yielded a protein stability index of 2.65.
Variant LCKDCQVICGRNVTVTDVDIVFSK [D9C] has a protein stability index of 2.05.
Variant LCKDCQVIDGRNLTVTDVDIVFSK [V13L] has a protein stability index of 2.48.
Variant LCKDCQVIDGRNQTVTDVDIVFSK [V13Q] has a protein stability index of 2.49.
Variant LCKDCQVIDGRNCTVTDVDIVFSK [V13C] has a protein stability index of 2.16.
Work on LCKDCQVIDGRNNTVTDVDIVFSK [V13N] yielded a protein stability index of 2.6.
In the case of LCKDCQVIDGRNYTVTDVDIVFSK [V13Y], the protein stability index is reported as 2.37.
LCKDCQVIDGRNTTVTDVDIVFSK [V13T] showed a protein stability index of 2.38.
Work on LCKDCQVIDGRNGTVTDVDIVFSK [V13G] yielded a protein stability index of 2.79.
Work on LCKDCQVIDGRNFTVTDVDIVFSK [V13F] yielded a protein stability index of 2.08.
LCKDCQVIDGRNATVTDVDIVFSK [V13A] showed a protein stability index of 2.75.
Variant LCKDCQVIDGRNITVTDVDIVFSK [V13I] has a protein stability index of 2.31.
Variant LCKDCQVIDGRNHTVTDVDIVFSK [V13H] has a protein stability index of 2.32.
Work on LCKDCQVIDGRNETVTDVDIVFSK [V13E] yielded a protein stability index of 3.59.
Work on LCKDCQVIDGRNDTVTDVDIVFSK [V13D] yielded a protein stability index of 3.04.
Variant LCKDCQVIDGRNPTVTDVDIVFSK [V13P] has a protein stability index of 3.08.
Variant LCKDCQVIDGRNSTVTDVDIVFSK [V13S] has a protein stability index of 3.12.
In the case of LCKDCQVIDGRNWTVTDVDIVFSK [V13W], the protein stability index is reported as 3.13.
Work on LCKDCQVIDGRNKTVTDVDIVFSK [V13K] yielded a protein stability index of 2.36.
LCKDCQVIDGRNMTVTDVDIVFSK [V13M] gave a protein stability index of 2.54.
LCKDCQVIDGRNRTVTDVDIVFSK [V13R] gave a protein stability index of 3.03.
